The test deals with T1, BMPR2 kinase domain (BMPR2^KD, residues 189-529) (human, UniProt Q13873 189-529).
T1 construct: BMPR2, type II BMP receptor, kinase domain, residues 189-529; TEV site between His tag and kinase domain; also called BMP receptor type II; source: BL21 E. coli, purified (Ni-NTA, TEV cleavage, SEC, Mono-Q); not shown: His tag, N-terminal, cleaved
T1 sequence (looked up): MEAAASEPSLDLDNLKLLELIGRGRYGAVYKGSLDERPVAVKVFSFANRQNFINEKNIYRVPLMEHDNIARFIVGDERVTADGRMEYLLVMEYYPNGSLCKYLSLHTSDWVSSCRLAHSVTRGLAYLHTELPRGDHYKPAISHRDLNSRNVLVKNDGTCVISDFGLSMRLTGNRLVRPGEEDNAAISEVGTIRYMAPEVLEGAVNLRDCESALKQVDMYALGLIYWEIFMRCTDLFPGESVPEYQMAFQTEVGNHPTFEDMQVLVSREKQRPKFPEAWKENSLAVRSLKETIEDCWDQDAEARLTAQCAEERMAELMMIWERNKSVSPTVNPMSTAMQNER
In words: SEC; Superdex 200 Increase 10/300 GL; kinase domains alone or as a stoichiometric mixture; also run in buffers with increasing NaCl. The note with it: both partners purified. (Size exclusion chromatography separates by hydrodynamic size, large species first.)

B1: ALK2 kinase domain (ALK2^KD, residues 201-499) (domain or fragment, human, UniProt Q04771 201-499, looked up)
chain: QRTVARQITLLECVGKGRYGEVWRGSWQGENVAVKIFSSRDEKSWFRETELYNTVMLRHENILGFIASDMTSRHSSTQLWLITHYHEMGSLYDYLQLTTLDTVSCLRIVLSIASGLAHLHIEIFGTQGKPAIAHRDLKSKNILVKKNGQCCIADLGLAVMHSQSTNQLDVGNNPRVGTKRYMAPEVLDETIQVDCFDSYKRVDIWAFGLVLWEVARRMVSNGIVEDYKPPFYDVVPNDPSFEDMRKVVCVDQQRPNIPNRWFSDPTLTSLAKLMKECWYQNPSARLTALRIKKTLTKID
notes: ALK2 (ACVR1), type I BMP receptor, kinase domain without the GS domain, residues 201-499; TEV site between His tag and kinase domain; also called ACVR1; ActRIA; source: SF9 insect cells, purified (Ni-NTA, TEV cleavage, SEC); not shown: His tag, N-terminal, cleaved
For B1, the binding result was “binds”.

B2: ALK2^KD-K492A (ALK2 kinase domain K492A) (domain or fragment, human, UniProt Q04771 201-499, looked up)
chain: QRTVARQITLLECVGKGRYGEVWRGSWQGENVAVKIFSSRDEKSWFRETELYNTVMLRHENILGFIASDMTSRHSSTQLWLITHYHEMGSLYDYLQLTTLDTVSCLRIVLSIASGLAHLHIEIFGTQGKPAIAHRDLKSKNILVKKNGQCCIADLGLAVMHSQSTNQLDVGNNPRVGTKRYMAPEVLDETIQVDCFDSYKRVDIWAFGLVLWEVARRMVSNGIVEDYKPPFYDVVPNDPSFEDMRKVVCVDQQRPNIPNRWFSDPTLTSLAKLMKECWYQNPSARLTALRIAKTLTKID
notes: ALK2 (ACVR1) kinase domain, residues 201-499, K492A; source: SF9 insect cells, purified (Ni-NTA, TEV cleavage, SEC); not shown: His tag, N-terminal, cleaved
As for B2, the binding result was “binds”.

Source of the values: paper PMC8368100, “Structural basis for ALK2/BMPR2 receptor complex signaling through kinase domain oligomerization” (Nature Communications, 2021).
